Assay results taken from the supplement of paper PMC12764529.
± gives the half width of the 95% confidence interval.

test: folding stability dG unfold from chymotrypsin proteolysis; higher = more stable
Outline: (§1)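 Unfolding free energy was derived, per protease or combined, by relating Bayesian-fitted K50 values from sequencing counts to a sequence-predicted unfolded-state K50 and a shared folded-state K50. The underlying digests exposed cysteine-free mini-proteins under 80 residues, in a PA-tagged cDNA display construct, to trypsin and chymotrypsin at 11 threefold-diluted concentrations and to a no-protease condition. A filter kept only designs with AlphaFold2 dimer inter-PAE above 15.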

Point of comparison: “SMTLPLLFVFPVNSPEELEKARKLAEEEVKELAEELGVKVKIEKVEYFVNPEGDYVLIRAYVTVTSPEEESA [r9_105_TrMRF]”, “folding stability dG unfold” value 4.07 ± 0.1 kcal/mol. Against it:
- SAGGEERERIRRLVRELRRRGYKRITADELARLLGREITEEELEALREAGLIELEEEETVEVVLPEEESAGG [r13_188_TrROS_Hall] — higher, 4.26 ± 0.085 kcal/mol
- SAGGSAGGSAGSTLTVTLTVRDPANPGTTTTVTLTLEVEPAPPPEVVVVKDANGNETLVPSAGGSAGGSAGG [r11_419_TrROS_Hall] — lower, 1.91 ± 0.052 kcal/mol
- SAEIAELLKELGFEVEVEKVEVKEVEVTVTDENGKKYKVKFVEVKITVKVTNPDGSKRTFSLDELKKLLSAG [r14_578_TrROS_Hall] — lower, 3.73 ± 0.11 kcal/mol
- SAGDWYVVIEIKHPNGRTITFVLRFDSPDELKDEILDNMRDEYGGPPEDMPITDIRVEVFDPKTGKPIWSAG [r5_482_TrROS] — lower, 3.36 ± 0.09 kcal/mol
- SAGGSASVSPVTLPLEVAPDEEVEGTLTLTLPSGPTVTYTAEITEVSPDGTANPVVTIDDTPVVVESAGGSA [r15_844_JUSTAS] — lower, 0.392 ± 0.091 kcal/mol
- SAGGKKVVITLTAEELEELLKEGKPLTAEEIARRLLPPGAKVTVEVTYDPETKEVTVTVVIEVPEELESAGG [r13_862_TrROS_Hall] — lower, 2.16 ± 0.21 kcal/mol
- SAGGSAGGSAGGSGMVEVVSPDLSPEELKERIRKELGDPSVKVEVTTLSDGTQLARVPASAGGSAGGSAGGS [r4_408_JUSTAS] — lower, -0.0859 ± 0.061 kcal/mol
- SAGGSAGGLTLRLELEIRLEDGLTLRVRVEYDLETNEVKIEIELLPPAPPVEEEPEVLVVEEEESAGGSAGG [r6_926_TrROS_Hall] — within error, 4.28 ± 0.29 kcal/mol
- SAGGSAGGSAGDKGYVMVTFPIEMTQYVYDPDGKPIGQHKHEMPITVMIPPNAAKKLLQASAGGSAGGSAGG [r11_620_TrROS] — lower, 0.773 ± 0.062 kcal/mol
- SAGGSAGGSAGKEKEIIIKVKVTKDKNGKYKIDIEELKKLFPNVKITEIKDNYIKIKVKKSAGGSAGGSAGG [r11_771_TrROS_Hall] — lower, 2.11 ± 0.13 kcal/mol
- SAGGSAGGSAGGSTGITSTFFDPKTGTVTTTTLVPSTGTTTTTVTPVTIPGPAATTTLTSAGGSAGGSAGGS [r10_331_JUSTAS] — lower, 0.55 ± 0.052 kcal/mol
- SAGGSAGGKKYEVVSTIKDPATGETITVIKKDGKLIITITNKNGETKTIEITVKPGETITITAPSAGGSAGG [r6_379_TrROS_Hall] — lower, 1.57 ± 0.026 kcal/mol
- SAGGSAGGSAGGSFTIASVETIRQPNGEILYRITLKFPDGTVEEVLEVPESEAGKVLSSLSAGGSAGGSAGG [r7_891_JUSTAS] — lower, 3.333 ± 0.025 kcal/mol
- SAGGMEEVIEEAIEAAKKGENVTITLPASVDPEVVLKALEEASGLKVTPISVTPLPDGTLRIEVKIESAGGS [r16_318_JUSTAS] — within error, 4.24 ± 0.14 kcal/mol
- SAGGSAGGSAGGMTVTTEKAAPSPRQVTVTTVYDPSTGTSVTIVTLPDGSLKVIPSGTLSAGGSAGGSAGGS [r10_996_JUSTAS] — lower, -0.404 ± 0.22 kcal/mol

test: folding stability dG unfold (combined trypsin and chymotrypsin); higher = more stable
Outline: as §1

Point of comparison: “SAGGSAGGSAGGSFTIASVETIRQPNGEILYRITLKFPDGTVEEVLEVPESEAGKVLSSLSAGGSAGGSAGG [r7_891_JUSTAS]”, “folding stability dG unfold” value 3.3 ± 0.07 kcal/mol. Against it:
- SAGGSAGGSAPPNVEIKLTMEPYKPPDGNKYYRIPIEVNKKPWQAKEIADWLQPEGFRIEPSAGGSAGGSAG [r3_157_TrROS] — lower, 0.151 ± 0.23 kcal/mol
- SAGMVAEEARRRASPEELAAEEAPPRPPPPVTVVTVPREVAPEVLAALAAAEDVEVEERGDELVIRVVGSAG [r14_7_JUSTAS] — lower, 0.299 ± 0.19 kcal/mol
- SAGGSVKVELKGDYLVITIPVEVPGDKDKPALLTIVIDLSPNGKPARIEMRSLETGKPLGEFTIDLSAGGSA [r2_412_TrMRF] — lower, 2.43 ± 0.07 kcal/mol
- SAGGSAGGSAGNKKAEEIKKILEEKGFEVVSVKVYKPKGNKPVVKIEVKAKNGKKFTILASAGGSAGGSAGG [r11_780_TrMRF] — within error, 3.22 ± 0.2 kcal/mol
- SAMKLPPGVEAEVLEVTVDEEVTITIKLEDETVVIVNEKTGEVTVIKPGETVTITMKPGEKLRIIVIKPSAG [r14_385_TrROS_Hall] — lower, 2.58 ± 0.24 kcal/mol
- SAGGSAGGRFRIKFKNGPVIEIDPNEPTIRFPDGSRRFPLNGDDAEEALEEFLSNGMKITEIEPSAGGSAGG [r6_340_TrROS] — lower, 0.641 ± 0.16 kcal/mol
- SMTEELVIDFPDGVKATVRRFGDGEVTITIDWPTDNPELRKKGGIKALVDAIAKELGLDPSKVKVYTRNASA [r9_401_TrMRF] — higher, 3.75 ± 0.11 kcal/mol
- SAGGSAGGNIDPDDITEVEEETYNFPNGWHIKIDYFRVPDDGQPIMKMEIEPMPPVKPDPNDKKSAGGSAGG [r6_758_TrROS] — lower, 0.627 ± 0.25 kcal/mol
- SIRPGQRIDSLEEVKEIAHRIAEEIQKEHGHPYKVTVNVEYYPEEDGRWYVKAKWYMPNNGKPIREITIMSA [r9_794_TrROS] — lower, 1.71 ± 0.19 kcal/mol
- SAGMVKTEPDPNSDIVRRTFTVQVPVRIPPGEWRELTIEVPFDEVYGPGGVPVDPVSEEEIEAAIKALLSAG [r5_239_JUSTAS] — lower, 1.07 ± 0.096 kcal/mol
- SAMRIRIEVETRTGPDGRKYVVVRIRDEKTGEELELVFESREEAEEAAKALAEELKKAGYEIEVEIRPPSAG [r14_263_TrROS_Hall] — higher, 5.21 ± 0.19 kcal/mol
- SAGGSAKEIKIEVVKVEYDKETKKVTVTLKIEVNGKKIEIKIEVDMTPEEVEEKVKKLAEELLKKLSAGGSA [r15_979_TrROS_Hall] — within error, 3.14 ± 0.25 kcal/mol
- SAGGSAGGSAGLKPGDEVLVISIEVETEIKLEEKDGKLTLETETKVKITITRVKLPEGAESAGGSAGGSAGG [r17_186_TrROS_Hall] — higher, 3.82 ± 0.25 kcal/mol
- SAGGSAGGSAGGKPITIKLEETGETATIDEDNGIITITNKDGSKYQITFKDGKLIIKKISAGGSAGGSAGGS [r10_568_TrROS_Hall] — lower, 2.79 ± 0.097 kcal/mol
- SAGGSAGGSAGSMEEALAAELRARGGVAVEIERIHVPSELAPGTKLPADEVLIRVTARPAASAGGSAGGSAG [r3_229_JUSTAS] — lower, 0.525 ± 0.17 kcal/mol
- SMTLPLLFVFPVNSPEELEKARKLAEEEVKELAEELGVKVKIEKVEYFVNPEGDYVLIRAYVTVTSPEEESA [r9_105_TrMRF] — higher, 3.76 ± 0.086 kcal/mol
- SAGGEERERIRRLVRELRRRGYKRITADELARLLGREITEEELEALREAGLIELEEEETVEVVLPEEESAGG [r13_188_TrROS_Hall] — higher, 4.15 ± 0.14 kcal/mol
- SAGGSAGGSAGSTLTVTLTVRDPANPGTTTTVTLTLEVEPAPPPEVVVVKDANGNETLVPSAGGSAGGSAGG [r11_419_TrROS_Hall] — lower, 1.63 ± 0.061 kcal/mol
- SAEIAELLKELGFEVEVEKVEVKEVEVTVTDENGKKYKVKFVEVKITVKVTNPDGSKRTFSLDELKKLLSAG [r14_578_TrROS_Hall] — within error, 3.45 ± 0.13 kcal/mol
- SAGDWYVVIEIKHPNGRTITFVLRFDSPDELKDEILDNMRDEYGGPPEDMPITDIRVEVFDPKTGKPIWSAG [r5_482_TrROS] — within error, 3.15 ± 0.14 kcal/mol
- SAGGSASVSPVTLPLEVAPDEEVEGTLTLTLPSGPTVTYTAEITEVSPDGTANPVVTIDDTPVVVESAGGSA [r15_844_JUSTAS] — lower, 0.965 ± 0.045 kcal/mol
- SAGGKKVVITLTAEELEELLKEGKPLTAEEIARRLLPPGAKVTVEVTYDPETKEVTVTVVIEVPEELESAGG [r13_862_TrROS_Hall] — lower, 2.22 ± 0.12 kcal/mol
- SAGGSAGGSAGGSGMVEVVSPDLSPEELKERIRKELGDPSVKVEVTTLSDGTQLARVPASAGGSAGGSAGGS [r4_408_JUSTAS] — lower, -0.365 ± 0.12 kcal/mol
- SAGGSAGGLTLRLELEIRLEDGLTLRVRVEYDLETNEVKIEIELLPPAPPVEEEPEVLVVEEEESAGGSAGG [r6_926_TrROS_Hall] — within error, 3.78 ± 0.41 kcal/mol
- SAGGSAGGSAGDKGYVMVTFPIEMTQYVYDPDGKPIGQHKHEMPITVMIPPNAAKKLLQASAGGSAGGSAGG [r11_620_TrROS] — lower, 0.592 ± 0.07 kcal/mol
- SAGGSAGGSAGKEKEIIIKVKVTKDKNGKYKIDIEELKKLFPNVKITEIKDNYIKIKVKKSAGGSAGGSAGG [r11_771_TrROS_Hall] — lower, 1.75 ± 0.31 kcal/mol
- SAGGSAGGSAGGSTGITSTFFDPKTGTVTTTTLVPSTGTTTTTVTPVTIPGPAATTTLTSAGGSAGGSAGGS [r10_331_JUSTAS] — lower, 0.888 ± 0.045 kcal/mol
- SAGGSAGGKKYEVVSTIKDPATGETITVIKKDGKLIITITNKNGETKTIEITVKPGETITITAPSAGGSAGG [r6_379_TrROS_Hall] — lower, 1.74 ± 0.057 kcal/mol
- SAGGMEEVIEEAIEAAKKGENVTITLPASVDPEVVLKALEEASGLKVTPISVTPLPDGTLRIEVKIESAGGS [r16_318_JUSTAS] — higher, 5.08 ± 0.54 kcal/mol
- SAGGSAGGSAGGMTVTTEKAAPSPRQVTVTTVYDPSTGTSVTIVTLPDGSLKVIPSGTLSAGGSAGGSAGGS [r10_996_JUSTAS] — lower, -0.247 ± 0.23 kcal/mol
